The values below come from US20260209293A1 (Novo Nordisk, published 2026).

*1 amine or outer side, *2 acyl side, *3 side chain or, on linkers, in order; H or OH if unused. The star is where a group is joined. C18 diacid = O=C(O)CCCCCCCCCCCCCCCCC(=O)*; γGlu = O=C(O)[C@H](CCC(=O)[*:2])N[*:1]

Sequences and labels used below:
B1: N^1-[(4S)-4-carboxy-4-(17-carboxyheptadecanoylamino)butanoyl]-[Ala1,Ser2,Leu4,Ala7,Gln8,Glu14,His17,Asp21,Pro22,Pro27,Asp31, Pro34,Asp35,Pro37]-human amylin (peptide)
peptide: {C18 diacid-γGlu}-ASNLATAQTQRLAEFLHHSSDPFGAIPSSTDVGPDTP-NH2
SMILES: CC[C@H](C)[C@H](NC(=O)[C@H](C)NC(=O)CNC(=O)[C@H](Cc1ccccc1)NC(=O)[C@@H]1CCCN1C(=O)[C@H](CC(=O)O)NC(=O)[C@H](CO)NC(=O)[C@H](CO)NC(=O)[C@H](Cc1c[nH]cn1)NC(=O)[C@H](Cc1c[nH]cn1)NC(=O)[C@H](CC(C)C)NC(=O)[C@H](Cc1ccccc1)NC(=O)[C@H](CCC(=O)O)NC(=O)[C@H](C)NC(=O)[C@H](CC(C)C)NC(=O)[C@H](CCCNC(=N)N)NC(=O)[C@H](CCC(N)=O)NC(=O)[C@@H](NC(=O)[C@H](CCC(N)=O)NC(=O)[C@H](C)NC(=O)[C@@H](NC(=O)[C@H](C)NC(=O)[C@H](CC(C)C)NC(=O)[C@H](CC(N)=O)NC(=O)[C@H](CO)NC(=O)[C@H](C)NC(=O)CC[C@H](NC(=O)CCCCCCCCCCCCCCCCC(=O)O)C(=O)O)[C@@H](C)O)[C@@H](C)O)C(=O)N1CCC[C@H]1C(=O)N[C@@H](CO)C(=O)N[C@@H](CO)C(=O)N[C@H](C(=O)N[C@@H](CC(=O)O)C(=O)N[C@H](C(=O)NCC(=O)N1CCC[C@H]1C(=O)N[C@@H](CC(=O)O)C(=O)N[C@H](C(=O)N1CCC[C@H]1C(N)=O)[C@@H](C)O)C(C)C)[C@@H](C)O
B2: N^1-[(4S)-4-carboxy-4-(17-carboxyheptadecanoylamino)butanoyl]-[Ala1,Gly2,Ser3,Leu4,Ser5,Ala7,Gln8,Ala10,Glu14,His17,Pro25,Pro28,Pro29,Asp31,Glu35,Pro37],des-(19 … (peptide)
peptide: {C18 diacid-γGlu}-AGSLSTAQTARLAEFLHHFGPILPPTDVGSETP-NH2
SMILES: CC[C@H](C)[C@H](NC(=O)[C@@H]1CCCN1C(=O)CNC(=O)[C@H](Cc1ccccc1)NC(=O)[C@H](Cc1c[nH]cn1)NC(=O)[C@H](Cc1c[nH]cn1)NC(=O)[C@H](CC(C)C)NC(=O)[C@H](Cc1ccccc1)NC(=O)[C@H](CCC(=O)O)NC(=O)[C@H](C)NC(=O)[C@H](CC(C)C)NC(=O)[C@H](CCCNC(=N)N)NC(=O)[C@H](C)NC(=O)[C@@H](NC(=O)[C@H](CCC(N)=O)NC(=O)[C@H](C)NC(=O)[C@@H](NC(=O)[C@H](CO)NC(=O)[C@H](CC(C)C)NC(=O)[C@H](CO)NC(=O)CNC(=O)[C@H](C)NC(=O)CC[C@H](NC(=O)CCCCCCCCCCCCCCCCC(=O)O)C(=O)O)[C@@H](C)O)[C@@H](C)O)C(=O)N[C@@H](CC(C)C)C(=O)N1CCC[C@H]1C(=O)N1CCC[C@H]1C(=O)N[C@H](C(=O)N[C@@H](CC(=O)O)C(=O)N[C@H](C(=O)NCC(=O)N[C@@H](CO)C(=O)N[C@@H](CCC(=O)O)C(=O)N[C@H](C(=O)N1CCC[C@H]1C(N)=O)[C@@H](C)O)C(C)C)[C@@H](C)O
B3: N^1-[(4S)-4-carboxy-4-(17-carboxyheptadecanoylamino)butanoyl]-[Ala1,Ser2,His3,Leu4,Ser5,Ala7,Gln8,Ala10,Glu14,His17,Asp21,Pro25,Pro28,Pro29,Asp31,Pro37]-human … (peptide)
peptide: {C18 diacid-γGlu}-ASHLSTAQTARLAEFLHHSSDNFGPILPPTDVGSNTP-NH2
SMILES: CC[C@H](C)[C@H](NC(=O)[C@@H]1CCCN1C(=O)CNC(=O)[C@H](Cc1ccccc1)NC(=O)[C@H](CC(N)=O)NC(=O)[C@H](CC(=O)O)NC(=O)[C@H](CO)NC(=O)[C@H](CO)NC(=O)[C@H](Cc1c[nH]cn1)NC(=O)[C@H](Cc1c[nH]cn1)NC(=O)[C@H](CC(C)C)NC(=O)[C@H](Cc1ccccc1)NC(=O)[C@H](CCC(=O)O)NC(=O)[C@H](C)NC(=O)[C@H](CC(C)C)NC(=O)[C@H](CCCNC(=N)N)NC(=O)[C@H](C)NC(=O)[C@@H](NC(=O)[C@H](CCC(N)=O)NC(=O)[C@H](C)NC(=O)[C@@H](NC(=O)[C@H](CO)NC(=O)[C@H](CC(C)C)NC(=O)[C@H](Cc1c[nH]cn1)NC(=O)[C@H](CO)NC(=O)[C@H](C)NC(=O)CC[C@H](NC(=O)CCCCCCCCCCCCCCCCC(=O)O)C(=O)O)[C@@H](C)O)[C@@H](C)O)C(=O)N[C@@H](CC(C)C)C(=O)N1CCC[C@H]1C(=O)N1CCC[C@H]1C(=O)N[C@H](C(=O)N[C@@H](CC(=O)O)C(=O)N[C@H](C(=O)NCC(=O)N[C@@H](CO)C(=O)N[C@@H](CC(N)=O)C(=O)N[C@H](C(=O)N1CCC[C@H]1C(N)=O)[C@@H](C)O)C(C)C)[C@@H](C)O
B4: N^1-[(4S)-4-carboxy-4-(17-carboxyheptadecanoylamino)butanoyl]-[Ala1,Gly2,Glu3,Leu4,Ser5,Ala7,Gln8,Glu14,His17,Asp21, Pro22,Pro27,Asp31, Pro34,Asp35, … (peptide)
peptide: {C18 diacid-γGlu}-AGELSTAQTQRLAEFLHHSSDPFGAIPSSTDVGPDTP-NH2
SMILES: CC[C@H](C)[C@H](NC(=O)[C@H](C)NC(=O)CNC(=O)[C@H](Cc1ccccc1)NC(=O)[C@@H]1CCCN1C(=O)[C@H](CC(=O)O)NC(=O)[C@H](CO)NC(=O)[C@H](CO)NC(=O)[C@H](Cc1c[nH]cn1)NC(=O)[C@H](Cc1c[nH]cn1)NC(=O)[C@H](CC(C)C)NC(=O)[C@H](Cc1ccccc1)NC(=O)[C@H](CCC(=O)O)NC(=O)[C@H](C)NC(=O)[C@H](CC(C)C)NC(=O)[C@H](CCCNC(=N)N)NC(=O)[C@H](CCC(N)=O)NC(=O)[C@@H](NC(=O)[C@H](CCC(N)=O)NC(=O)[C@H](C)NC(=O)[C@@H](NC(=O)[C@H](CO)NC(=O)[C@H](CC(C)C)NC(=O)[C@H](CCC(=O)O)NC(=O)CNC(=O)[C@H](C)NC(=O)CC[C@H](NC(=O)CCCCCCCCCCCCCCCCC(=O)O)C(=O)O)[C@@H](C)O)[C@@H](C)O)C(=O)N1CCC[C@H]1C(=O)N[C@@H](CO)C(=O)N[C@@H](CO)C(=O)N[C@H](C(=O)N[C@@H](CC(=O)O)C(=O)N[C@H](C(=O)NCC(=O)N1CCC[C@H]1C(=O)N[C@@H](CC(=O)O)C(=O)N[C@H](C(=O)N1CCC[C@H]1C(N)=O)[C@@H](C)O)C(C)C)[C@@H](C)O
B5: N^1-[(4S)-4-carboxy-4-(17-carboxyheptadecanoylamino)butanoyl]-[Ala1,Gly2,Ser3,Leu4,Ser5,Ala7,Gln8,Ala10,Glu14,His17,Asp21, Pro25,Pro28,Pro29,Asp31,Pro37]-human … (peptide)
peptide: {C18 diacid-γGlu}-AGSLSTAQTARLAEFLHHSSDNFGPILPPTDVGSNTP-NH2
SMILES: CC[C@H](C)[C@H](NC(=O)[C@@H]1CCCN1C(=O)CNC(=O)[C@H](Cc1ccccc1)NC(=O)[C@H](CC(N)=O)NC(=O)[C@H](CC(=O)O)NC(=O)[C@H](CO)NC(=O)[C@H](CO)NC(=O)[C@H](Cc1c[nH]cn1)NC(=O)[C@H](Cc1c[nH]cn1)NC(=O)[C@H](CC(C)C)NC(=O)[C@H](Cc1ccccc1)NC(=O)[C@H](CCC(=O)O)NC(=O)[C@H](C)NC(=O)[C@H](CC(C)C)NC(=O)[C@H](CCCNC(=N)N)NC(=O)[C@H](C)NC(=O)[C@@H](NC(=O)[C@H](CCC(N)=O)NC(=O)[C@H](C)NC(=O)[C@@H](NC(=O)[C@H](CO)NC(=O)[C@H](CC(C)C)NC(=O)[C@H](CO)NC(=O)CNC(=O)[C@H](C)NC(=O)CC[C@H](NC(=O)CCCCCCCCCCCCCCCCC(=O)O)C(=O)O)[C@@H](C)O)[C@@H](C)O)C(=O)N[C@@H](CC(C)C)C(=O)N1CCC[C@H]1C(=O)N1CCC[C@H]1C(=O)N[C@H](C(=O)N[C@@H](CC(=O)O)C(=O)N[C@H](C(=O)NCC(=O)N[C@@H](CO)C(=O)N[C@@H](CC(N)=O)C(=O)N[C@H](C(=O)N1CCC[C@H]1C(N)=O)[C@@H](C)O)C(C)C)[C@@H](C)O

One test has as its target T1, human calcitonin receptor (a) (human, UniProt P30988 25-474).
T1 sequence (looked up): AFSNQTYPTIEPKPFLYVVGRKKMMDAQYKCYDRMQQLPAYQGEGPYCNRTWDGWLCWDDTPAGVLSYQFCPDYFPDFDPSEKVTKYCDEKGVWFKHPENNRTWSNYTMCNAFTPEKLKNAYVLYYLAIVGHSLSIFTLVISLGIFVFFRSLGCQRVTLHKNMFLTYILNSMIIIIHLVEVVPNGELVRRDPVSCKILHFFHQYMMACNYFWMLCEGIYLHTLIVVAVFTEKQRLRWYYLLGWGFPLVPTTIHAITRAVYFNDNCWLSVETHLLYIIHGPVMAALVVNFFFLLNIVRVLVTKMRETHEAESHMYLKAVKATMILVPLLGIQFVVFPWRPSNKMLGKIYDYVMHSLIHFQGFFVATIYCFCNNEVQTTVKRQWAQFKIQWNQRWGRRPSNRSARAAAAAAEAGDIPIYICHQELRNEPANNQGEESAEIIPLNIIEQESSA
Description: cell-based or functional assay.
For B1, the “hCalcR potency, EC50 (pM); CRE-luciferase reporter in BHK cells” value (“hCalcR potency, EC50 (pM)” below) was 1.99 pM.

Regarding B2, the “hCalcR potency, EC50 (pM)” value is 1.01 pM.

For the molecule B3, the “hCalcR potency, EC50 (pM)” value is 1.63 pM.

As to B4, the “hCalcR potency, EC50 (pM)” value is 1.58 pM.

For the molecule B5, the “hCalcR potency, EC50 (pM)” value is 1.58 pM.

Another test deals with T2, human amylin-3(a) receptor (human, UniProt P30988 25-474; O60896 24-148).
T2 sequence (looked up) 1: T1 sequence (looked up)
T2 sequence (looked up) 2: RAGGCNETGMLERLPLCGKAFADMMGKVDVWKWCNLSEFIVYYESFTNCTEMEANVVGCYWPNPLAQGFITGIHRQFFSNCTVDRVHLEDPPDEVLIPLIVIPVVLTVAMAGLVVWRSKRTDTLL
Description: cell-based or functional assay.
For B1, the “hAmyR3 potency, EC50 (pM); CRE-luciferase reporter in BHK cells” value (shortened to “hAmyR3 potency, EC50 (pM)”) was 1.88 pM.

Take B2: the “hAmyR3 potency, EC50 (pM)” value came to 0.81 pM.

Regarding B3, the “hAmyR3 potency, EC50 (pM)” value amounted to 1.28 pM.

Consider B4, for which the “hAmyR3 potency, EC50 (pM)” value turned out to be 2.43 pM.

As to B5, the “hAmyR3 potency, EC50 (pM)” value was found to be 1.36 pM.
